Measurements published in US20180134794A1.
Read-outs that look alike come from different tables or passages of the source.

Assays:
[1] = target: human MET (c-Met, HGFR) endogenously expressed on cell lines (human) (UniProt P08581)
[2] = target: human MET (c-Met, HGFR) endogenously expressed on cell lines (human) (UniProt P08581); remark: listed apart in the source

human MET (c-Met, HGFR) endogenously expressed on cell lines (human), sequence (P08581 25-1390): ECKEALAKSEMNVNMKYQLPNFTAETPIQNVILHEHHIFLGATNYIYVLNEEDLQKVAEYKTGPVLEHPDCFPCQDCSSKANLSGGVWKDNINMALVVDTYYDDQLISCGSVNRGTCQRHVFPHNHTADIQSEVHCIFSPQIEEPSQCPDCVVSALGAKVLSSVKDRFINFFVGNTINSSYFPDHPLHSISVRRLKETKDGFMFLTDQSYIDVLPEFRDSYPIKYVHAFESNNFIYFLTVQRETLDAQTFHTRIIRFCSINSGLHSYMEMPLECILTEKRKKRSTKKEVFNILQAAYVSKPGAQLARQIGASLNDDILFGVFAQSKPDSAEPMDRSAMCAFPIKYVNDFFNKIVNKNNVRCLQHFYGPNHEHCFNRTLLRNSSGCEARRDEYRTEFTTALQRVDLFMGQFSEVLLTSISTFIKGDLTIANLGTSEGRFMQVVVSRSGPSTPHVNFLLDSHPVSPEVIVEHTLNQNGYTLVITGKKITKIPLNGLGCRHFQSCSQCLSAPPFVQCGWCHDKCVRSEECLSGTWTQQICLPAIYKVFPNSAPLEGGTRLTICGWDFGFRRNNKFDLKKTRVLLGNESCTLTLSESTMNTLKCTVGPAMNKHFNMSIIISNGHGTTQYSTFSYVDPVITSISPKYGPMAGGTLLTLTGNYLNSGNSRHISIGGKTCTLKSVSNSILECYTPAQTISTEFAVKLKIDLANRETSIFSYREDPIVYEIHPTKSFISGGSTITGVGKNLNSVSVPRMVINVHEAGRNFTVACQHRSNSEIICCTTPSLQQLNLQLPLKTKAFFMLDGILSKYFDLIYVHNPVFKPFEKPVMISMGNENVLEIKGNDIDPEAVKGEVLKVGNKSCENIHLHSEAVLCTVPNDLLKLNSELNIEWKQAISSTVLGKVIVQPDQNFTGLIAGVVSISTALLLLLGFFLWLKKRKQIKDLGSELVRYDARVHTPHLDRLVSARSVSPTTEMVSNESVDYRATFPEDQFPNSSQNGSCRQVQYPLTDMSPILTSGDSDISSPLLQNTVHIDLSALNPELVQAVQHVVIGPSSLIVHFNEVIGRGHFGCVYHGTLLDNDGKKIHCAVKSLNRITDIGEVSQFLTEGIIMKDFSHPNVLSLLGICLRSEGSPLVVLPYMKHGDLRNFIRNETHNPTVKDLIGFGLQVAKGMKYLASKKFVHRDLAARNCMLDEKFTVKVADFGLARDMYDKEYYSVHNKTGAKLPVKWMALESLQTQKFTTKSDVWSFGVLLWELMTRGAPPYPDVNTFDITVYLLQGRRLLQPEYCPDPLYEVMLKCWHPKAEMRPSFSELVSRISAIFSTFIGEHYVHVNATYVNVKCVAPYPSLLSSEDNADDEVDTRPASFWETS

monovalent anti-MET antibody (heavy and light chain variable sequences of MetMab)
IC50 (read off the curve), inhibition of HGF-induced SRE-luciferase signal [1]: 0.06 nM
IC50 (read off the curve), inhibition of HGF-induced SRE-luciferase signal [2]: 0.4 nM
